In the Human Domainome abundance scans (Beltran et al. 2025):
± gives the uncertainty stated by the source.

B1: POU domain, class 4, transcription factor 1, residues 266 to 347; numbered along this chain, Q01851 (parent)
chain: RELEAFAERFKQRRIKLGVTQADVGSALANLKIPGVGSLSQSTICRFESLTLSHNNMIALKPILQAWLEEAEGAQREKMNKP

Variants of: B1
Assay: abundance fitness (aPCA) (normalised: wild type 0, dead -1); higher = more abundant; growth selection in yeast, the domain comes from the species named
Details: Homo sapiens

Row | Variant | abundance fitness
1 | RELEAFAERFKQRRIKLGVTQADVGSALANLKIPGVGSLSQSTICRFESLTLSHNNMIALKPILQAWLEEAEGAQREIMNKP [K78I] | -0.026 ± 0.09
2 | RELEAFAERFKQRRIKLGVTQADVGSALANLKIPGVGSLSQSTICRFESLTLSHNNMIALKPILQAWLEEAEGAQRELMNKP [K78L] | -0.012 ± 0.069
3 | RELEAFAERFKQRRIKLGVTQADVGSALANLKIPGVGSLSQSTICRFESLTLSHNNMIALKPILQAWLEEAEGAQCEKMNKP [R76C] | 0.012 ± 0.033
4 | RELEAFAERFKQRRIKLGVTQADVGSALANLKIPGVGSLSQSTICRFESQTLSHNNMIALKPILQAWLEEAEGAQREKMNKP [L50Q] | -0.01 ± 0.056
5 | RELEAFAERFKQRRIKLGVTQADVGSALANLKIPGVGSLSQSTICRFESNTLSHNNMIALKPILQAWLEEAEGAQREKMNKP [L50N] | -0.032 ± 0.04
6 | RELEAFAERFKQRRIKLGVTQADVGSALANLKIPGVGSLSQSTICRFETLTLSHNNMIALKPILQAWLEEAEGAQREKMNKP [S49T] | 0.001 ± 0.035
7 | RELEAFAERFKQRRIKLGVTQADVGSALANLKIPGVGSLSQSTICRFESLTLSPNNMIALKPILQAWLEEAEGAQREKMNKP [H54P] | 0.041 ± 0.045
8 | RELEAWAERFKQRRIKLGVTQADVGSALANLKIPGVGSLSQSTICRFESLTLSHNNMIALKPILQAWLEEAEGAQREKMNKP [F6W] | -0.139 ± 0.026
9 | RELEARAERFKQRRIKLGVTQADVGSALANLKIPGVGSLSQSTICRFESLTLSHNNMIALKPILQAWLEEAEGAQREKMNKP [F6R] | -0.987 ± 0.042
10 | RELEAFAERFKQRRIILGVTQADVGSALANLKIPGVGSLSQSTICRFESLTLSHNNMIALKPILQAWLEEAEGAQREKMNKP [K16I] | -0.104 ± 0.037
11 | RELEAFAERFKQRRIKLGVTQADDGSALANLKIPGVGSLSQSTICRFESLTLSHNNMIALKPILQAWLEEAEGAQREKMNKP [V24D] | -0.66 ± 0.16
12 | RELEAFAERFKQRRIKLGVTQADVGSALAYLKIPGVGSLSQSTICRFESLTLSHNNMIALKPILQAWLEEAEGAQREKMNKP [N30Y] | 0.033 ± 0.34
13 | RELEAFAERFKQRRIKLGVTQADVGSALANLKIIGVGSLSQSTICRFESLTLSHNNMIALKPILQAWLEEAEGAQREKMNKP [P34I] | -0.197 ± 0.066
14 | RELEAFAERFKQRRIKLGVTQADVGSALANLKIFGVGSLSQSTICRFESLTLSHNNMIALKPILQAWLEEAEGAQREKMNKP [P34F] | -0.097 ± 0.065
15 | RELEAFAERFKQRRIKLGVTQADVGSALANLKIYGVGSLSQSTICRFESLTLSHNNMIALKPILQAWLEEAEGAQREKMNKP [P34Y] | -0.387 ± 0.082
16 | RELEAFAERFKQRRIKLGVTQADVGSALANLKIPGVGSLSQSTICRFESLTLSHNNMIALKPILQMWLEEAEGAQREKMNKP [A66M] | -0.041 ± 0.039
17 | RELEAFAERFKQRRFKLGVTQADVGSALANLKIPGVGSLSQSTICRFESLTLSHNNMIALKPILQAWLEEAEGAQREKMNKP [I15F] | -0.322 ± 0.039

Row | Variant | abundance fitness
18 | RELEAFAHRFKQRRIKLGVTQADVGSALANLKIPGVGSLSQSTICRFESLTLSHNNMIALKPILQAWLEEAEGAQREKMNKP [E8H] | -0.164 ± 0.22
19 | RELEAFAERFKQRRIKLGVTQADVGSALANLKIPMVGSLSQSTICRFESLTLSHNNMIALKPILQAWLEEAEGAQREKMNKP [G35M] | -0.175 ± 0.22
20 | RELEAFAERFKQRRIKLGVTQADVGSALANLKIPGVGSLRQSTICRFESLTLSHNNMIALKPILQAWLEEAEGAQREKMNKP [S40R] | -0.155 ± 0.041
21 | RELEAFAERFKQRRIKLGVTQADVGSALANLKIPGVGSLLQSTICRFESLTLSHNNMIALKPILQAWLEEAEGAQREKMNKP [S40L] | -0.238 ± 0.052
22 | RELEAFAERFKQRRIKLGVTQADVGSALRNLKIPGVGSLSQSTICRFESLTLSHNNMIALKPILQAWLEEAEGAQREKMNKP [A29R] | 0.083 ± 0.087
23 | RELEAFAERFKQRRIKLGVTQADVGSALANLKIPGVGSLSQSTICRFESLTLSHNNMIALKPILQAWLEEAEIAQREKMNKP [G73I] | 0.121 ± 0.17
24 | RELEAFAERFKQRRIKLGVTQADVGSALANLKIPGVGSLSQSTICRFESLTLSHNNMIALKPILQAWLEEAEDAQREKMNKP [G73D] | -0.105 ± 0.11
25 | RELEAFAERFKQRRIKLGVTQADVGSALANLKIPGVGSLSDSTICRFESLTLSHNNMIALKPILQAWLEEAEGAQREKMNKP [Q41D] | 0.048 ± 0.084
26 | RELEAFAERFKQRAIKLGVTQADVGSALANLKIPGVGSLSQSTICRFESLTLSHNNMIALKPILQAWLEEAEGAQREKMNKP [R14A] | -0.919 ± 0.071
27 | RELEAFAERFKQRWIKLGVTQADVGSALANLKIPGVGSLSQSTICRFESLTLSHNNMIALKPILQAWLEEAEGAQREKMNKP [R14W] | -1.02 ± 0.098
28 | RELEAFAERFKQRFIKLGVTQADVGSALANLKIPGVGSLSQSTICRFESLTLSHNNMIALKPILQAWLEEAEGAQREKMNKP [R14F] | -1.07 ± 0.12
29 | RELEAFAERFKQRRIKLGVTQADVGSALANLKIPGVGSLSQSTICRFESLTLSHNNMIALKPILQAWLEEAEGAQREKMNMP [K81M] | -0.059 ± 0.14
30 | RELEAFAERFKQRRIKLGVTQADVGSALANLKIPGVGSLSQSTICRFESLTLSHNNMIALKPILQAWLEEAEGAQREKMNIP [K81I] | -0.112 ± 0.32
31 | RELEAFAERFKQRRIKLGVTQADVGSALANLKIPGVGSLSQSTICRFESLTLSHNNMIALKPILQAWLEEAEGAQREKMNHP [K81H] | -0.432 ± 0.39
32 | RELWAFAERFKQRRIKLGVTQADVGSALANLKIPGVGSLSQSTICRFESLTLSHNNMIALKPILQAWLEEAEGAQREKMNKP [E4W] | -0.057 ± 0.049
33 | RETEAFAERFKQRRIKLGVTQADVGSALANLKIPGVGSLSQSTICRFESLTLSHNNMIALKPILQAWLEEAEGAQREKMNKP [L3T] | -0.26 ± 0.057
